Test results from patent EP0266663A1.

How the values were obtained:
L6 antigen (human) [1] = molecular target: L6 antigen (human) (UniProt P30408); experiment: inhibition of the binding of FITC-labelled mouse L6 to 3347 cells, flow cytometry; 50% inhibition
L6 antigen (human) [2] = molecular target: L6 antigen (human) (UniProt P30408); experiment: cell-based or functional assay
L6 antigen (human) [3] = molecular target: L6 antigen (human) (UniProt P30408); experiment: inhibition of the binding of FITC-labelled mouse L6 to 3347 cells, flow cytometry; 50% inhibition; run with the pooled chimeric L6
L6 antigen (human) [4] = molecular target: L6 antigen (human) (UniProt P30408); experiment: inhibition of the binding of FITC-labelled mouse L6 to 3347 cells, flow cytometry; 50% inhibition; run with the chimeric L6 from ascites

Sequence of UniProt P30408 (P30408 whole entry): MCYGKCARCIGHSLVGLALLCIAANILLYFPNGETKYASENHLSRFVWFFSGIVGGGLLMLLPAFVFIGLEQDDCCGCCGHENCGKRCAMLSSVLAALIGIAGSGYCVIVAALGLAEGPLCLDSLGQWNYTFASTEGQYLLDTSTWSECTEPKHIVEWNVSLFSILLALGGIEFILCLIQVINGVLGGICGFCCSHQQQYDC

| IC50 (L6 antigen (human) [1]) | IC50 (L6 antigen (human) [3]) | IC50 (L6 antigen (human) [4]) | Substance | tumor killing activity (ADCC or CDC) (L6 antigen (human) [2]) |
| --- | --- | --- | --- | --- |
| 3.4 µg/mL | – | – | chimeric L6 antibody (from UniProt P01857 1-330) | 0.01 µg/mL |
| – | 2 µg/mL | 2.7 µg/mL | L6 monoclonal antibody (mouse, IgG2a) | – |
